The source of these data is US6248875, “Neuronal MORT1 isoforms” (American Home Products Corporation, dated 2001).

The assay deals with T1, SNF4-pACTII (unrelated fusion with Gal4 activation domain) (yeast, UniProt P12904).
T1 sequence: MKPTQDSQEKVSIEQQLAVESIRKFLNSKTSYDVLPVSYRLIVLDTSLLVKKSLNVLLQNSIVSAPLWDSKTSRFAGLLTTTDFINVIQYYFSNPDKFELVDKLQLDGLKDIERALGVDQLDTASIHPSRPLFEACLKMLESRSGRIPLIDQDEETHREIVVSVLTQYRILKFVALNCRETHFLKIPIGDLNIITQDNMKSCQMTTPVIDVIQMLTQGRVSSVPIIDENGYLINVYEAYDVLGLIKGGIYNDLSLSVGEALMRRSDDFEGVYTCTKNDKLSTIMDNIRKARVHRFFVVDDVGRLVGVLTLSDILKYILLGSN
The assay can be described thus: yeast two-hybrid, HIS3 reporter, strain YCB5.1. The protocol: Figure 1: FIG. 1: Investigation of the MORT1 transcript isoforms with MACHα1 C360S in a yeast two-hybrid system: Activation of the HIS3 reporter gene. Each MORT1 transcript isoforms was expressed as a fusion protein with Gal4 DNA binding domain. MACHα1 C360S was expressed as a fusion protein with the Gal4 activation domain. Yeast strains were plated at a cell density of 5 ×10^1, 5 ×10^2, 5 ×10^3, 5 ×10^4 and 5 ×10^5 (left to right within a plate. Sibling isolates from yeast strains expressing a MORT1 transcript isoform with MACHα1 C360S fusion proteins were plated on histidine deficient media containing 0, 20 or 40 mM 3-aminotriazole (3-AT). The top row of plates (1) contained yeast strains that express two fusion proteins as follows: YCB5: MORT1-pAS1/MACHα1 C360S-pACTII; YCB9: MORT1Δ21-pAS1/MACHα1 C360S-pACTII; YCB16: MORT1 G173A-pAS1/MACHα1 C360S-pACTII. The bottom row of plates (3) contains negative control strains which express only the MORT1 transcript isoform fusion protein with a recombinant vector containing nonrelated heterologous DNA, as follows: YCB5.1: MORT1-pAS1/SNF4-pACTII; YCB9.1: […]. […] Each MORT1 transcript isoforms was expressed as a fusion protein with Gal4 DNA binding domain. MACHα1 C360S was expressed as a fusion protein with the Gal4 activation domain. […]

B1: MORT1 fusion protein with Gal4 DNA binding domain (MORT1-pAS1) (other)
chain: MDPFLVLLHSVSSSLSSSELTELKFLCLGRVGKRKLERVQSGLDLFSMLLEQNDLEPGHTELLRELLASLRRHDLLRRVDDFEAGAAAGAAPGEEDLCAAFNVICDNVGKDWRRLARQLKVSDTKIDSIEDRYPRNLTERVRESLRIWKNTEKENATVAHLVGALRSCQMNLVADLVQEVQQARDLQNRSGAMSPMSWNSDASTSEAS
In the case of B1, the binding result was “no binding”.
